The record followed here is publication PMC2889767.

The target of this data set is T1, Rfx3 (in vitro translated) (UniProt P48381 1-749).
T1 sequence: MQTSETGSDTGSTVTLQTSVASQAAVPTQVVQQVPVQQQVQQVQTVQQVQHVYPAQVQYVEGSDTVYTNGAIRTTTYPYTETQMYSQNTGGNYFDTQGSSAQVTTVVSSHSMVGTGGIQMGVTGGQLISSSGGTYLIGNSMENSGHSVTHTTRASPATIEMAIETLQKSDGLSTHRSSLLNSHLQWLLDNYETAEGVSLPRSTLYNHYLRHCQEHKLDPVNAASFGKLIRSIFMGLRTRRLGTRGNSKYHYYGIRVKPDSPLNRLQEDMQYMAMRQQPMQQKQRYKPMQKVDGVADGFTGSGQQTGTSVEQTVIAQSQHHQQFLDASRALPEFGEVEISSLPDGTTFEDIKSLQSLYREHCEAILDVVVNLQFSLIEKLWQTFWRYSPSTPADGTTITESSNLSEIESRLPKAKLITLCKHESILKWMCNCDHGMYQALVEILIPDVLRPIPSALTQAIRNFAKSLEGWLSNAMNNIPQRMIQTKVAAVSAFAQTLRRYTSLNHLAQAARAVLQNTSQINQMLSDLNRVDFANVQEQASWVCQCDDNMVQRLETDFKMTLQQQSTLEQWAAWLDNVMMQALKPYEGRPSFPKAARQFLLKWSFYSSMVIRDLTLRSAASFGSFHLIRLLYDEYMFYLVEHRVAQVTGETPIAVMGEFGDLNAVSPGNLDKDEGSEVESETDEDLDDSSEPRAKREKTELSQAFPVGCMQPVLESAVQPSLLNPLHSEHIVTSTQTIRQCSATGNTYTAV
Nature of the data set: EMSA. A general note: Mobility shift assays separate free from complexed probe on a gel.

B1: Pal-2 wild type (dsDNA)
DNA 1: GGCAATGGTCACCATAGAAACCACAG
DNA 2: GGCTGTGGTTTCTATGGTGACCATTG
Take B1: the binding result is “binds”.

B2: Pal-1 wild type (dsDNA)
DNA 1: GGGAGTGGTCACCATGGTGACAGGAG
DNA 2: GGCTCCTGTCACCATGGTGACCACTC
Turning to B2, the binding result is “binds”.
